Experimental data as given in patent publication US20210155701A1 (Chugai, published 2021).
Where a chain is given by its changes, count along the chain named.

T1: human CD3ed-Fc (biotin-labeled human CD3 epsilon and human CD3 delta linked to a human antibody constant … (human, biotin-labeled (BirA co-expression); site not stated)
T1 construct: also called CD3 epsilon delta heterodimer fused with the antibody constant region
T1 chain 1: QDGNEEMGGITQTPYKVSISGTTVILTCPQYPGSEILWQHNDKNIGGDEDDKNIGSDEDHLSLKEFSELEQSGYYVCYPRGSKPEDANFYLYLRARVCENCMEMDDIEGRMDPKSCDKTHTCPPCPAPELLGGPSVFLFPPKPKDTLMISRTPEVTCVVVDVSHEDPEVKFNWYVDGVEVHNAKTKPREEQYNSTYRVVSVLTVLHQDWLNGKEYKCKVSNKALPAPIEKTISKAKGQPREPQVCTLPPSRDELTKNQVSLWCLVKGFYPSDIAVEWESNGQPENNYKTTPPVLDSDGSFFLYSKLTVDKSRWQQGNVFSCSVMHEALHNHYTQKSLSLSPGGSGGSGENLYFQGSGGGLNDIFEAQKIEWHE
T1 chain 2: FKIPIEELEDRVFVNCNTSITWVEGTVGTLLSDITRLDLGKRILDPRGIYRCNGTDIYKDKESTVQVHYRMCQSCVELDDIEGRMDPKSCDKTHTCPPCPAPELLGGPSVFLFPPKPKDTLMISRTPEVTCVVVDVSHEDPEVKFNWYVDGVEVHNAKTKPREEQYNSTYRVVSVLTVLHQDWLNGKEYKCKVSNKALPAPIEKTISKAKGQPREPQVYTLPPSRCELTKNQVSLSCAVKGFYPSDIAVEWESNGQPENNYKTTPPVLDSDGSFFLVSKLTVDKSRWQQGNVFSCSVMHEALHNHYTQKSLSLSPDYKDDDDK

T2: soluble human IL-6R (human, UniProt P08887 20-357)
T2 construct: also called hsIL-6R; recombinant human IL6R
T2 sequence: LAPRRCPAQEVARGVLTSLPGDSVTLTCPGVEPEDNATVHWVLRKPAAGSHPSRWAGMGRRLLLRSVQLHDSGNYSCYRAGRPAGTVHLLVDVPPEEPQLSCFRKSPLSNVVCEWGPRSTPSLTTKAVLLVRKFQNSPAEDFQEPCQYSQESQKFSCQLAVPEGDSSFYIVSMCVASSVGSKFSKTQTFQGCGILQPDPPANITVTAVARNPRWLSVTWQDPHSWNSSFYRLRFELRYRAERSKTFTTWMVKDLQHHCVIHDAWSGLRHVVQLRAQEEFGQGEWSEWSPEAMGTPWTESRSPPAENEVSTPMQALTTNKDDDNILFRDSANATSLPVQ

B1: bC3edL1R1N161H01 (VHH)
VHH: QVQLVESGGGLVQPGGSLRLSCAASGFPFDNYVMSWVRQAPGKGLEWISAISWNGGSTYYAESMKGRFTISRDNAKSTLYLQMNSLKSEDTAVYYCAKEPRVYYSGSPDYWGQGTQVTVSG
B2: bC3edL1R1N160H01 (VHH)
VHH: QVQLVESGGGLVQPGGSLRLSCAASGFTFNHCWMYWVRQAPGKGLEWVSVINTDGGSAYYADSVKGRFTISRDNAKNTLYLQMNSLKSEDTAVYYCARDWAPLVDYYYGMDYWGKGTLVTVSG
B3: bC3edL1R1N164H01 (VHH)
VHH: QVQLVESGGGLVQPGGSLRLSCAASGFTFDVYGMSWVRHSPGKGLEWVSTINWNGGSTYYAESMKGRFTISRDNAKNTVYLQMNSLKPEDTAVYYCAKFAPWDGDMEWGQGTQVTVSG
B4: IL6R90-G1m/VK2-28-k0MT (antibody, human IgG1, kappa, V domains shown)
VH: EVQLVESGGGLVQPGGSLRLSCAASGFTFDDYGMSWVRQAPGKALEWVSAISWNGNNTYYTESMKGRFTISRDNAKNTLYLQMNSLRPEDTAVYYCVKGSTAIVGVPPTYPDEYDYWGQGTLVTVSS
VL: not shown
notes: IgG antibody-like molecule
B5: IL6R90-G1m/VL1-44-lamL (antibody, human IgG1, lambda, V domains shown)
VH: B4 VH
VL: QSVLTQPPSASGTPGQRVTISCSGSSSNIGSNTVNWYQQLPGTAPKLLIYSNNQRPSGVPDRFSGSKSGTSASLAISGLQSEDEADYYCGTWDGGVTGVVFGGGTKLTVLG
notes: IgG antibody-like molecule
B6: IL6R90-G1m/VL2-14-lamL (antibody, human IgG1, lambda, V domains shown)
VH: B4 VH
VL: QSALTQPASVSGSPGQSITISCTGTSSDVGGYNYVSWYQQHPGKAPKLMIYEVSNRPSGVSNRFSGSKSGNTASLTISGLQAEDEADYYCSSYRSGYTLVVFGGGTKLTVLG
notes: IgG antibody-like molecule
B7: IL6R90-G1m/VL1-40-lamL (antibody, human IgG1, lambda, V domains shown)
VH: B4 VH
VL: QSVLTQPPSVSGAPGQRVTISCTGSSSNIGAGYDVHWYQQLPGTAPKLLIYGNSNRPSGVPDRFSGSKSGTSASLAITGLQAEDEADYYCQSYDNSLNAVVFGGGTKLTVLG
notes: IgG antibody-like molecule
B8: bC3edL1R1N164H01-G1mISHI01/VK1-39-k0MT (before protease treatment) (antibody, human IgG1, kappa, V domains shown)
VH: B3 VHH
VL: DIQMTQSPSSLSASVGDRVTITCRASQSISSYLNWYQQKPGKAPKLLIYAASSLQSGVPSRFSGSGSGTDFTLTISSLQPEDFATYYCLQFDSYPLTFGGGTKVEIKR
notes: Uncleaved
B9: bC3edL1R1N161H01-G1mISHI01/VK1-39-k0MT (before protease treatment) (antibody, human IgG1, kappa, V domains shown)
VH: B1 VHH
VL: B8 VL
notes: Uncleaved
B10: bC3edL1R1N160H01-G1mISHI01/VK1-39-k0MT (before protease treatment) (antibody, human IgG1, kappa, V domains shown)
VH: B2 VHH
VL: B8 VL
B11: 20A11hu-G1m/VL1-44-lamL (antibody, human IgG1, lambda, V domains shown)
VH: EVQLVESGGGLVQPGGSLRLSCAASGSVFKINVMAWVRQAPGKGLEWVAGIISGGSTSYADSVKGRFTISRDNAKNTLYLQMNSLRPEDTAVYYCAFITTESDYDLGRRYWGQGTLVTVSS
VL: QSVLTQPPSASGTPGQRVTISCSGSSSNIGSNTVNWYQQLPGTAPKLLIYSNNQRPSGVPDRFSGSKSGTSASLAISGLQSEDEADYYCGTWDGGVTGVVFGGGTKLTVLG
B12: 20A11hu-G1m/VK1-39-k0MT (antibody, human IgG1, kappa, V domains shown)
VH: B11 VH
VL: B8 VL
B13: 20A11hu-G1m/VL1-40-lamL (antibody, human IgG1, lambda, V domains shown)
VH: B11 VH
VL: B7 VL
B14: 20A11hu-G1m/VK2-28-k0MT (antibody, human IgG1, kappa, V domains shown)
VH: B11 VH
VL: not shown
B15: 20A11hu-G1m/VL2-14-lamL (antibody, human IgG1, lambda, V domains shown)
VH: B11 VH
VL: B6 VL
B16: 20A11-G1m/VK1-39-k0MT (antibody, human IgG1, kappa, V domains shown)
VH: B11 VH with V37Y, L45R, W47L
VL: B8 VL
B17: 20A11-G1m/VL1-44-lamL (antibody, human IgG1, lambda, V domains shown)
VH: B11 VH with V37Y, L45R, W47L
VL: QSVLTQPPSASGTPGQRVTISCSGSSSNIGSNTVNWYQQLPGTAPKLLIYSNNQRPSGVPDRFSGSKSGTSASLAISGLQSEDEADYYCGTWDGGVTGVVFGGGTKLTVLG
B18: 20A11-G1m/VL2-14-lamL (antibody, human IgG1, lambda, V domains shown)
VH: B11 VH with V37Y, L45R, W47L
VL: B6 VL
B19: 20A11-G1m/VL3-21-lamL (antibody, human IgG1, lambda, V domains shown)
VH: B11 VH with V37Y, L45R, W47L
VL: SYVLTQPPSVSVAPGKTARITCGGNNIGSKSVHWYQQKPGQAPVLVIYYDSDRPSGIPERFSGSNSGNTATLTISRVEAGDEADYYCQAWDSSTDVVFGGGTKLTVLG
B20: 20A11-G1m/VL1-40-lamL (antibody, human IgG1, lambda, V domains shown)
VH: B11 VH with V37Y, L45R, W47L
VL: B7 VL
B21: 20A11-G1m/VK2-28-k0MT (antibody, human IgG1, kappa, V domains shown)
VH: B11 VH with V37Y, L45R, W47L
VL: not shown
B22: PX02-R4_017-G1mISHI01/VK1-39-k0MT (before protease treatment) (antibody, human IgG1, kappa, V domains shown)
VH: QVQLVESGGGLVQPGGSLRLSCTASGISFSISTMGWYRQAPGKQRELVATITSGGEAYYANSMKDRFTISRDNAENTVYLQMNRLKPEDSAVYYCNTKFPWSTDWNARGQGTQVTVSG
VL: B8 VL
notes: Uncleaved
B23: PX03-R2_006-G1mISHI01/VK1-39-k0MT (before protease treatment) (antibody, human IgG1, kappa, V domains shown)
VH: B22 VH with V2L, T52A, M63V, D65G
VL: B8 VL
notes: Uncleaved
B24: PX03-R4_009-G1mISHI01/VK1-39-k0MT (before protease treatment) (antibody, human IgG1, kappa, V domains shown)
VH: B22 VH with V2L, T52A, M63V, D65G, D72E, N73Y, Y79F
VL: B8 VL
notes: Uncleaved

Target: T1, human CD3ed-Fc (biotin-labeled human …)
Experiment: phage display: phage ELISA or panning on biotin-labeled human CD3ed-Fc (binding clone for human CD3)
Experimental: The obtained phages were evaluated for their binding to IL6R, CD3 or plexin A1 by ELISA. The sequence of a bound clone was analyzed by a method known to those skilled in the art to identify VHH binding to the antigen.
Phage production was performed from E. coli retaining the constructed phagemids for phage display. A phage population was precipitated by the addition of 2.5 M NaCl/10% PEG to the culture solution of the E. coli after the phage production, and then diluted with TB S to obtain a phage library solution. […] The magnetic beads used were NeutrAvidin coated beads (FG beads NeutrAvidin) or Streptavidin coated beads (Dynabeads MyOne Streptavidin T1).
Specifically, 100 pmol of the biotin-labeled antigen was added to the prepared phage library solution, and the phage library solution was contacted with the antigen at room temperature for 60 minutes. The magnetic beads blocked with BSA were added thereto, and the complexes of the antigen and the phages were bound to the magnetic beads at room temperature for 15 minutes. The beads were washed twice with 0.5 mL of TBST (TBS containing 0.1% Tween 20; TBS was manufactured by Takara Bio Inc.) and then further washed once with 0.5 mL of TBS. Then, 0.5 mL of 1 mg/mL trypsin was added thereto, and the beads were suspended at room temperature for 15 minutes and immediately thereafter, separated using a magnetic stand to recover a phage solution. The recovered phage solution was added to 20 mL of an E. coli line ER2738 in an exponential stage of growth (OD600: 0.4-0.5). The E. coli was cultured with mild stirring at 37 degrees C. for 1 hour and thereby infected by the phages.

| binding result | Binder |
| --- | --- |
| binds | B1 |
| binds | B2 |
| binds | B3 |

Target: T2, soluble human IL-6R
Experiment: BLI (Octet HTX), molecule on Protein A biosensor, hsIL-6R as analyte, 30 degrees C
Experimental: The hsIL-6R binding evaluation of each molecule was conducted using Octet HTX (Pall ForteBio Corp.). Specifically, each molecule was bound to Biosensor/Protein A (ProA) (Pall ForteBio Corp., 18-5013), and hsIL-6R was allowed to act thereon, followed by binding evaluation at 30 degrees C.

| binding result | Binder |
| --- | --- |
| no binding | B4 |
| no binding | B5 |
| no binding | B6 |
| no binding | B7 |

Target: T1, human CD3ed-Fc (biotin-labeled human …)
Experiment: BLI (Octet RED) as in Example 3

| binding result | Binder |
| --- | --- |
| no binding | B8 |
| no binding | B9 |
| no binding | B10 |

Target: T2, soluble human IL-6R
Experiment: BLI (Octet) as in Example 3, 30 degrees C or 25 degrees C

| binding result | Binder |
| --- | --- |
| no binding | B11 |
| no binding | B12 |
| no binding | B13 |
| no binding | B14 |
| no binding | B15 |

Target: T2, soluble human IL-6R
Experiment: BLI (Octet) as in Example 3

| binding result | Binder |
| --- | --- |
| binds | B16 |
| binds | B17 |
| binds | B18 |
| binds | B19 |
| binds | B20 |
| binds | B21 |

Target: T3, biotinylated plexin A1 (human, UniProt Q9UIW2 27-1253, biotin on the AviTag sequence (SEQ ID NO: 36))
T3 construct: also called biotin-labeled human plexin A1; human plexin A1
T3 sequence (Q9UIW2 other isoform, or with tags, fused parts or gaps limits assumed): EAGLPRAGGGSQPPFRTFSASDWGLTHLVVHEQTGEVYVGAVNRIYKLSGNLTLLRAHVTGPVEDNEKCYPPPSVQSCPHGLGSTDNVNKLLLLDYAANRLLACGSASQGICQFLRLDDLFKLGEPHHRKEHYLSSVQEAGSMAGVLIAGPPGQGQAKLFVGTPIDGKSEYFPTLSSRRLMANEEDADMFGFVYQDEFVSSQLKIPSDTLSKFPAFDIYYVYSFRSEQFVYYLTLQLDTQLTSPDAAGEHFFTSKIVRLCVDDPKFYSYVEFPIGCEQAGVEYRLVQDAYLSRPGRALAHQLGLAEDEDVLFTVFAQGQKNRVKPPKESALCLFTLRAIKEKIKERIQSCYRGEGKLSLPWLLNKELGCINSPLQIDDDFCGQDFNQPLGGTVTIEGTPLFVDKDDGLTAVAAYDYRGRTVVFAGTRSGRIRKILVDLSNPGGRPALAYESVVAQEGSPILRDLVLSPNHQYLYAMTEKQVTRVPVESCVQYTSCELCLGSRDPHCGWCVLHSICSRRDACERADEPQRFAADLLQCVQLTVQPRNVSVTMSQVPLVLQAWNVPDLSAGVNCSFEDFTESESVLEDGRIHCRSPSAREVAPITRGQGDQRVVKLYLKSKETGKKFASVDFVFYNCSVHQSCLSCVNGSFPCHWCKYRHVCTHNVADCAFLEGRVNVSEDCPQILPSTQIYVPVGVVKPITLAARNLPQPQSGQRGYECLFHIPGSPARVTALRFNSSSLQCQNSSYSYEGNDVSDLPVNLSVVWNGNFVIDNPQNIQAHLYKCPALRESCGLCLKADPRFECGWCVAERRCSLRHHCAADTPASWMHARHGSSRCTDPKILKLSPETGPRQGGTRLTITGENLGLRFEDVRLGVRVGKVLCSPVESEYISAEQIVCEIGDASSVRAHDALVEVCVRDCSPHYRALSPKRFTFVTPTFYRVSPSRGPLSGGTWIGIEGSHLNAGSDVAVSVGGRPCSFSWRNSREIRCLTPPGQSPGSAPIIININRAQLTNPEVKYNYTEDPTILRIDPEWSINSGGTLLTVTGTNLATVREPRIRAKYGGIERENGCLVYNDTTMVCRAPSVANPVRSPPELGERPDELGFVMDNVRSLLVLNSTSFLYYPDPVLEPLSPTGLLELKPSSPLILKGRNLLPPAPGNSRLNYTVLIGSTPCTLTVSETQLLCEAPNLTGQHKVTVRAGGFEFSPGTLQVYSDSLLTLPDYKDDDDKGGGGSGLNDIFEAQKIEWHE
Experiment: BLI (Octet) as in Example 3

| binding result | Binder |
| --- | --- |
| no binding | B22 |
| no binding | B23 |
| no binding | B24 |
